Measured values taken from patent US20190309084A1 (ALLIGATOR BIOSCIENCE, published 2019).
Positions count from the first letter of the chain named. Blank lines part the entries; values can stand above or below the binder they belong to.

Experiments:
[1] = molecular target: T1, GITR-hFc (R&D Systems, #689-GR) (human, UniProt Q9Y5U5 26-161); test: dual ELISA: GITR-hFc coated, bispecific titrated, biotinylated CTLA-4-mFc then streptavidin-HRP, luminescence
T1 construct: Bought; also called Human GITR (coated in ELISA plates); not shown: human Fc part of a bought fusion protein
T1 sequence: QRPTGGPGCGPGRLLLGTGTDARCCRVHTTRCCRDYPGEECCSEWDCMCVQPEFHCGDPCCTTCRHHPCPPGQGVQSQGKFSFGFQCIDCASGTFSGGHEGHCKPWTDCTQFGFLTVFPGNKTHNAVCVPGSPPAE

[2] = molecular target: T2, Human GITR (Acro Biosystems, #GIR-H5228) (human, UniProt Q9Y5U5 26-161); test: BLI (Octet RED96), GITR amine-coupled to AR2G tips, bispecific as analyte, 1:1 fit
T2 construct: Bought recombinant protein, amine-coupled to the sensor tips; also called hGITR
T2 sequence: T1 sequence

[3] = molecular target: T1, GITR-hFc (R&D Systems, #689-GR); test: dual ELISA: GITR-hFc coated, bispecific titrated, detected with biotinylated CTLA-4-mFc + streptavidin-HRP (signal needs binding to both targets); afucosylated IgG1; dual ELISA, signal needs both GITR and CTLA-4
[4] = molecular target: T1, GITR-hFc (R&D Systems, #689-GR); test: dual ELISA: GITR-hFc coated, bispecific titrated, detected with biotinylated CTLA-4-mFc + streptavidin-HRP (signal needs binding to both targets); wildtype IgG1; dual ELISA, signal needs both GITR and CTLA-4
[5] = molecular target: T3, human CTLA-4 (ACRO Biosystems, #CT4-H5229) (human, UniProt P16410 38-152); test: BLI (Octet RED96), bispecific captured on anti-hIgG Fc (AHC) tips, hCTLA-4 as analyte, 1:1 fit
T3 construct: Bought recombinant protein, used as analyte in solution; also called hCTLA-4
T3 sequence (P16410 38-152 limits assumed): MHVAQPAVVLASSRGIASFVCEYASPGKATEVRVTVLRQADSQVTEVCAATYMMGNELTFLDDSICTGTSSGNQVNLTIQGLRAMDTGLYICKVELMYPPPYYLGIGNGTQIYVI

EC50 (read off the curve) [1]: ~1 nM
Kd [2]: 0.346 nM
koff [2]: 5.28e-05 s⁻¹
kon [2]: 153000 M⁻¹ s⁻¹
B1: GITR/CTLA-4 bispecific antibody 2348/2349 (bispecific antibody)
VH: EVQLLESGGGLVQPGGSLRLSCAASGFTFGYYYMSWVRQAPGKGLEWVSGISSPSSYTYYADSVKGRFTISRDNSKNTLYLQMNSLRAEDTAVYYCARYYGSYFDYWGQGTLVTVSS
light: DIQMTQSPSSLSASVGDRVTITCRASQAISAYLNWYQQKPGKAPKLLIYAASSLQSGVPSRFSGSGSGTDFTLTISSLQPEDFATYYCQQSYGYYLYTFGQGTKLEIKRTVAAPSVFIFPPSDEQLKSGTASVVCLLNNFYPREAKVQWKVDNALQSGNSQESVTEQDSKDSTYSLSSTLTLSKADYEKHKVYACEVTHQGLSSPVTKSFNRGECSGGGGSGGGGSAPLKIQAYFNETADLPCQFANSQNLSLSELVVFWQDQENLVLNEVYLGKERFDSVDSKYMGRTSFDSDSWTLRLHNLQIKDKGRYQCIIHHKKPTGMINIHQMNSELSVLA
notes: Anti-GITR IgG with CD86 mutant 1040 fused to the C-terminus of the kappa chain

EC50 [3]: 0.54 nM
B2: GITR/CTLA-4 bispecific antibody 2372/2373, afucosylated IgG1 format (bispecific antibody)
VH: EVQLLESGGGLVQPGGSLRLSCAASGFTFSGYSMGWVRQAPGKGLEWVSAISGSGGSTYYADSVKGRFTISRDNSKNTLYLQMNSLRAEDTAVYYCARYPWGYYFDYWGQGTLVTVSS
light: B1 light with A28G, S30R, A51V, S91Y, G93Y, Y94P, Y95P, Y97S
modifications: afucosylated Fc domain

EC50 (read off the curve) [1]: ~0.5 nM
Kd [2]: 0.608 nM
koff [2]: 0.000214 s⁻¹
kon [2]: 351000 M⁻¹ s⁻¹
EC50 [4]: 0.64 nM
Kd [5]: 2.9 nM
koff [5]: 0.000551 s⁻¹
kon [5]: 190000 M⁻¹ s⁻¹
B3: GITR/CTLA-4 bispecific antibody 2372/2373, wildtype IgG1 format (bispecific antibody)
VH: B2 VH
light: B1 light with A28G, S30R, A51V, S91Y, G93Y, Y94P, Y95P, Y97S

EC50 (read off the curve) [1]: ~0.6 nM
Kd [2]: 1.67 nM
koff [2]: 0.000423 s⁻¹
kon [2]: 254000 M⁻¹ s⁻¹
B4: GITR/CTLA-4 bispecific antibody 2404/2405 (bispecific antibody, IgG1)
VH: EVQLLESGGGLVQPGGSLRLSCAASGFTFSYSSMSWVRQAPGKGLEWVSYIGSGGSHTYYADSVKGRFTISRDNSKNTLYLQMNSLRAEDTAVYYCARYSYYFDYWGQGTLVTVSS
light: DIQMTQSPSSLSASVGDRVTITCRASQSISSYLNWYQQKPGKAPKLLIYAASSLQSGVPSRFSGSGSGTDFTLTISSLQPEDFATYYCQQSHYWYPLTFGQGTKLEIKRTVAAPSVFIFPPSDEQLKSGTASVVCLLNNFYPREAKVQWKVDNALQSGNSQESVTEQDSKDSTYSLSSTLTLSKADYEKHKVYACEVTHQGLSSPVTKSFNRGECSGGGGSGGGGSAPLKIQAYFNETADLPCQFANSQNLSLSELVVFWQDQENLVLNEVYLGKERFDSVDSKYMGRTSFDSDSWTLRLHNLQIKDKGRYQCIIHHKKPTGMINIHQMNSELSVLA
